Experimental findings from patent US20110311475A1 (published 2011) are described below.

Experiment [1] concerns the target T1, IL2 Receptor beta protein (Fc Chimera Active, Abcam plc) (human, UniProt P14784 27-240).
T1 construct: In the assay it was coupled to DyLight 649 conjugated Protein A; also called IL-2Rβ subunit; human Interleukin-2 receptor beta (CD122); Fc part of the bought chimera not given
T1 sequence (looked up): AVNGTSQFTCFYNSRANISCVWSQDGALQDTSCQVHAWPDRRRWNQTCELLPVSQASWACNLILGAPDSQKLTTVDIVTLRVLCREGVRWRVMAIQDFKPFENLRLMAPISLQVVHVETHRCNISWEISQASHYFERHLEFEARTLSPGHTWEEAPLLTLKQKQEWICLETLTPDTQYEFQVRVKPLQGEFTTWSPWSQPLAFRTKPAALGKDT
Put plainly: bead-based flow cytometric immunoassay, receptor-Fc chimera/Protein A-DyLight 649 (FIG. 19C). The text has this: (§1) Both goat anti-human IL-21 and rabbit anti-human IL-21 antibodies were initially tested using a Western blot technique to confirm suitable detection of the IL-21 variant proteins with the predicted size. The success of antibody-to-bead conjugation was verified using PE Goat anti-Rabbit IgG Detector (BD Biosciences). To detect the receptor interaction of bead-captured IL-21 variants with the Interleukin-21 receptor proprietary subunit, the Interleukin-4 receptor alpha subunit, the Interleukin-2 receptor alpha or the Interleukin-2 receptor beta, appropriate receptor-Fc-chimera proteins were coupled with a Protein-A-fluorochrome complex suitable for flow cytometric evaluation. […] 50 μl of antibody-coated beads and serial dilutions of IL-21 variant proteins, with final concentrations ranging from 100 pg/ml to 1 μg/ml, were incubated together with the fluorescence conjugated receptor-chimera-Protein-A complexes in excess in 96-well plates for 3 h on a titer plate shaker. […] Bead particles were discriminated on the basis of size and fluorescence (see FIGS. 19A and B) on a BD FACSCanto II system with BD FACSDiva software (BD Biosciences). […]

The target in experiment [2] is T2, Recombinant Human IL-4 Rα Fc Chimera protein (R&D Systems) (human, UniProt P24394 26-231).
T2 construct: In the assay it was coupled to DyLight 649 conjugated Protein A; also called IL-4Rα subunit; Fc part of the bought chimera not given
T2 sequence (looked up): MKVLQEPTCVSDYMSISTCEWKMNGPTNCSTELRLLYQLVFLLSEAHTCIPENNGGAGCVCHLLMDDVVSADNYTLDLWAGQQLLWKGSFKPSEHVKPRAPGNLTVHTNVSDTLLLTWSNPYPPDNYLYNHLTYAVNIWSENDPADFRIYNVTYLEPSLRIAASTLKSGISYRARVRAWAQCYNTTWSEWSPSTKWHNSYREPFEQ
The experiment can be described thus: bead-based flow cytometric immunoassay, receptor-Fc chimera/Protein A-DyLight 649 (FIG. 19D).
From the text: as §1

B1: IL-21/IL-2 hybrid protein (ligand)
chain: QGQDRHMIRMRQLIDIVDQLKNYVNDLVPEFLPAPEDVETNCEWSAFSCFQKAQLKSANTGNNERIINVSISNINVIVLELKGSETTFMCDSYEKKPPKEFLERFKSLLQKMIHQHLSSRTHGSEDS
notes: also called IL-21 variant
Take B1: in experiment [1], the binding result is given as “binds”.

B2: IL-21/IL-4 hybrid protein (ligand)
chain: QGQDRHMITLQEIIKTLNSLTEQKTLVPEFLPAPEDVETNCEWSAFSCFQKAQLKSAQQFHRHKQLIRFLKRLDRNLWGLAGLNSCPSCDSYEKKPPKEFLERFKSLLQKMIHQHLSSRTHGSEDS
notes: also called IL-21/IL-4 hybrid variant; IL-21/IL-4 variant protein
For B2, the binding result in experiment [2] is “binds”.
